Experimental findings from PMC8442969 are described below.

As a reminder, the Kd is the equilibrium constant for the complex coming apart. A high value points to lower affinity.

Test in all cases: NMR titration
Experiment [1] concerns the target human mono-ubiquitin, N-terminally 6xHis tagged (made in house, for NMR) (human) (UniProt P0CG48).
The target in experiment [2] is human DSS1 (Deletion of Split-hand/Split-foot 1), GST tag removed (human).
Experiment [3] concerns the target human CSNAP (CSN Acidic Protein), GST tag removed (human).

“human DSS1 (Deletion of Split-hand/Split-foot 1), GST tag removed (natural protein)” returned a dissociation constant Kd in experiment [1] of 430 µM.
On to “human mono-ubiquitin, N-terminally 6xHis tagged (made in house, for NMR) (from UniProt P0CG48 1-76) (natural protein)”, for which the KD of site UBS2 (apparent) in experiment [2] came out at 1.8 mM. In experiment [3], this substance registered a KD(app), first of two groups of residues of 0.8 mM and a KD(app), second of two groups of residues of 2 mM.
